Measurements taken from publication PMC7170509, “Substrate recognition and ATPase activity of the E. coli cysteine/cystine ABC transporter YecSC-FliY” (The Journal of Biological Chemistry, 2020).

Legend:
FliY [1] = target: T1, FliY (Escherichia coli, UniProt P0AEM9); assay: isothermal titration calorimetry; assay type: binding
T1 construct: gene tcyJ; C-terminal His6 tag (pET21b); expressed in E. coli BL21-Gold(DE3), purified from osmotic shock extract; monomer

FliY [2] = target: T1, FliY; assay: nanoDSF thermal shift; assay type: binding; conditions: 30 μM FliY, 200 μM ligand; 50 mM Tris-HCl pH 7.5, 250 mM NaCl
[3] = target: T2, YecSC, the E. coli cysteine/cystine ABC transporter (YecS transmembrane domain and YecC nucleotide-binding … (E. coli, UniProt P0AFT2 1-222; P37774 1-250); assay: cell-based or functional assay
T2 sequence (looked up) 1: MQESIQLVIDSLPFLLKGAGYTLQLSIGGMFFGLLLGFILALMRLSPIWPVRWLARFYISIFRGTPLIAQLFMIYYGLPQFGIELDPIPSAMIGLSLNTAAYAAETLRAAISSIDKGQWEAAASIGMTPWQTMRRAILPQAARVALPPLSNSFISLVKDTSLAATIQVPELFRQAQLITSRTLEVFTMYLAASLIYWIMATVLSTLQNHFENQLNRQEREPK
T2 sequence (looked up) 2: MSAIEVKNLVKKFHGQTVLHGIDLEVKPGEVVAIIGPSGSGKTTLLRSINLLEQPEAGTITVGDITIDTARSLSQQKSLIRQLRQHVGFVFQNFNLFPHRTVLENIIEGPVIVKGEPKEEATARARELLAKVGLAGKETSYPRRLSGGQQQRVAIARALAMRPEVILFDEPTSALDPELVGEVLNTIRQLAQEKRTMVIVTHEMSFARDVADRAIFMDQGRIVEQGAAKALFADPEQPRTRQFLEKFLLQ

Molecule: N[C@H](CS)C(=O)O [D-cysteine]
- Kd (FliY [1]): 10 ± 3.4 µM

Molecule: N[C@@H](CS)C(=O)O [L-cysteine]
- Kd (FliY [1]): 14.4 ± 2.4 µM

Molecule: N[C@@H](CSSC[C@H](N)C(=O)O)C(=O)O [L-cystine]
- Kd (FliY [1]): 9.3 ± 2.8 µM
- dTm (FliY [2]): the L-enantiomer of its oxidized dimeric form (Cys-S-S-Cys, cystine) also led to thermostabilization of FliY

B1: FliY, the substrate-binding protein (SBP) of the E. coli YecSC-FliY cysteine/cystine ABC import system (natural protein, UniProt P0AEM9 30-266, looked up)
chain: DEGLLNKVKERGTLLVGLEGTYPPFSFQGDDGKLTGFEVEFAQQLAKHLGVEASLKPTKWDGMLASLDSKRIDVVINQVTISDERKKKYDFSTPYTISGIQALVKKGNEGTIKTADDLKGKKVGVGLGTNYEEWLRQNVQGVDVRTYDDDPTKYQDLRVGRIDAILVDRLAALDLVKKTNDTLAVTGEAFSRQESGVALRKGNEDLLKAVNDAIAEMQKDGTLQALSEKWFGADVTK
- apparent Km for FliY of the stimulation of ATP hydrolysis by 1 μM YecSC (0.25–20 μM FliY), in the absence of substrate (apo FliY) [3]: 10.3 µM
- apparent Km for FliY of the stimulation of ATP hydrolysis by 1 μM YecSC (0.25–20 μM FliY), in the presence of 100 μM L-cystine (holo FliY) [3]: 1.1 µM
- interaction ratio from the Michaelis–Menten fit of initial ATPase rates of YecSC against FliY concentration, without and with L-cystine [3]: 1 FliY:YecSC
- stimulation of the ATPase activity of YecSC by FliY with L-cystine, over basal activity [3]: ~11 fold
- stimulation of the ATPase activity of YecSC by substrate-free apo FliY, over basal activity [3]: ~3 fold
